According to publication PMC8633780:

Target: EstN7, cold active family IV (hormone sensitive lipase family) esterase from Bacillus cohnii strain N1 (Bacillus cohnii strain N1)
Assay: SEC; size exclusion chromatography of purified EstN7 in solution (supplementary figure S1)

For “EstN7, cold active family IV (hormone sensitive lipase family) esterase from Bacillus cohnii strain N1 (enzyme)”, the stoichiometry N was 2.
